The results in this text go back to patent US20210355194A1 (TWIST BIOSCIENCE, published 2021).

For test [1], the target named is T1, human ACE2 (human, UniProt Q9BYF1 18-740).
The target of test [2] is T1, human ACE2. This is another data set of the same source.
For test [3], the target named is T2, SARS-CoV-2 S1 protein (SARS-CoV-2, UniProt P0DTC2 16-685).
T2 construct: also called SARS-CoV-2 Spike Glycoprotein S1; S1 (subunit 1)
The test can be described thus: phage ELISA screen on S1, mean. On the technique in general: ELISA stands for enzyme-linked immunosorbent assay.

Test [4] deals with T2, SARS-CoV-2 S1 protein. Put plainly: inhibitor ELISA, competitor ACE2.
In test [5] the target is S protein trimer (SARS-CoV-2, UniProt P0DTC2 14-1208). The test can be described thus: ELISA, plate coated with S protein trimer.
Test [6] deals with T3, SARS-CoV-2 antigen of the epitope binning (SARS-CoV-2, UniProt P0DTC2 16-685).
T3 construct: also called S1
The test can be described thus: epitope binning; competitor CR3022.

In test [7] the target is T3, SARS-CoV-2 antigen of the epitope …. The test can be described thus: epitope binning; competitor 2-11.
The target is the same in test [8]. The test can be described thus: epitope binning; competitor 2-8.
Test [9] has the same target. The test can be described thus: epitope binning; competitor 2-6.
Test [10] has the same target. Put plainly: epitope binning; competitor 2-2.
The target is the same in test [11]. The test can be described thus: epitope binning; competitor 2-5.
Test [12] shares this target. The test can be described thus: epitope binning; competitor Acro mAb.
Test [13] has as its target T4, SARS-CoV-2 S protein RBD, SPD-C5259 (SARS-CoV-2, UniProt P0DTC2 319-537).
T4 construct: domain: RBD
Put plainly: FACS, inhibition of S protein RBD binding to Vero cells.

Test [14] deals with T3, SARS-CoV-2 antigen of the epitope …. Put plainly: epitope binning; competitor 1-16.
For test [15], the target named is T5, SARS-CoV-2 Spike Glycoprotein S1 (SARS-CoV-2, UniProt P0DTC2 16-685).
T5 construct: also called S1 Monomer
The test can be described thus: ELISA, plate coated with S1.

The target in test [16] is T3, SARS-CoV-2 antigen of the epitope …. The test can be described thus: epitope binning; competitor 1-35.
Test [17] has the same target. Put plainly: epitope binning; competitor 1-32.
Test [18] addresses T2, SARS-CoV-2 S1 protein. The test can be described thus: phage ELISA screen on S1, mean. The source holds these as a separate data set.
Test [19] has as its target T2, SARS-CoV-2 S1 protein. Put plainly: ELISA binding titration on coated antigen.

Several values for one entry are separate records, joined by “and”; a condition that tells them apart may be missing. Identical values can stand only once. Like-named read-outs stand apart in the source and are kept apart here.

The term Kd denotes the free concentration of one partner at which half of the binding sites on the other are occupied at equilibrium, for simple one-to-one binding. Low values mean a tighter complex, high ones a looser complex. What is called IC50 is the concentration needed to halve the response being measured. As a reminder, the EC50 is the concentration at which the effect is half-maximal. Read a high EC50 as a less potent agent.

T1 sequence (Q9BYF1 18-740 limits assumed): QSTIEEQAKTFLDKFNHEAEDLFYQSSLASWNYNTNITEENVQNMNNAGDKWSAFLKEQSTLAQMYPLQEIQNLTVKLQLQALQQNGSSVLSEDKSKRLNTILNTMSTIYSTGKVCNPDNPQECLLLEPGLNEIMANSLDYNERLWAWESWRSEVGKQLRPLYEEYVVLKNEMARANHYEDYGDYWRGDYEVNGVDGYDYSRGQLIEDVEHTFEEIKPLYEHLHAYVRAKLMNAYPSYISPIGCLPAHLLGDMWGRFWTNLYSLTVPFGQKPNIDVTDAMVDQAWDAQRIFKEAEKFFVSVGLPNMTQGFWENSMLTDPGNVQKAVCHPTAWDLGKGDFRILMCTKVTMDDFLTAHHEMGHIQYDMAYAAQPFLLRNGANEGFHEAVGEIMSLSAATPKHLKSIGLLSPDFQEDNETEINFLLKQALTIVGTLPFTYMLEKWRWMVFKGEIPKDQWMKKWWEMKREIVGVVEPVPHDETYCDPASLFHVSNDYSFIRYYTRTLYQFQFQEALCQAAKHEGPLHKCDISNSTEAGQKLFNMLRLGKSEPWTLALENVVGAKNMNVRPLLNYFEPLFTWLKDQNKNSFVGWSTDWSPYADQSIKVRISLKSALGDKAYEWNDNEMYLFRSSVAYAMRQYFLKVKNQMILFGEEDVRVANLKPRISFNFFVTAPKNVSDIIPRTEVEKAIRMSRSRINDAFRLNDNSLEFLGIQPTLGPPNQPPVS

B1: 4-17 (VHH)
VHH: EVQLVESGGGLVQPGGSLRLSCAASGQLANFASYAMGWFRQAPGKEREFVAAITRSGSSTVYADSVKGRFTISADNSKNTAYLQMNSLKPEDTAVYYCATTMNPNPRWGQGTLVTVSS
In the case of B1, the Kd in [1] was 18.8 nM and 30.6 nM. In addition, in [2], the IC50 is 0.721 nM.

B2: 2-12 (antibody, V domains shown)
VH: EVQLLESGGGLVQPGGSLRLSCAASGFTFSDYPMNWVRQAPGKGLEWVSTISGSGGITFYADSVKGRFTISRDNSKNTLYLQMNSLRAEDTAVYYCVRHDEYSFDYWGQGTLVTVSS
VL: DIQMTQSPSSLSASVGDRVTITCRASQSIDNYLNWYQQKPGKAPKLLIYGVSALQSGVPSRFSGSGSGTDFTLTISSLQPEDFATYYCQQSHSAPPYFFGQGTKVEIK
notes: also called variant 2-12
Take B2: in [3], the “ELISA(Avg)” value stood at 18.2 fold over background. In test [4], this molecule showed an IC50 of 1 nM.

B3: 2-8 (antibody, V domains shown)
VH: EVQLLESGGGLVQPGGSLRLSCAASGFTFSDFAMAWVRQAPGKGLEWVSAISGSGDITYYADSVKGRFTISRDNSKNTLYLQMNSLRAEDTAVYYCAREADGLHSPWHFDLWGQGTLVTVSS
VL: DIQMTQSPSSLSASVGDRVTITCRASQSIDTYLNWYQQKPGKAPKLLIYAASALASGVPSRFSGSGSGTDFTLTISSLQPEDFATYYCQQSYSAPPYTFGQGTKVEIK
On to B3, for which, in test [5], the “S Trimer” value turned out to be 7.08 nM. The epitope binning score in test [6] came out at 0; in [7] it was 1; in test [8], 0; in [9], 1; in [10] it was 0; in [11], 0. For the same molecule, the epitope binning score in test [12], in test [14], in test [16] and in test [17] was 1 in each case. This molecule had an IC50 in test [13] of 19.5 nM. Further, the “S1 Monomer” value in test [15] came to 1.52 nM.

B4: 2-4 (antibody, V domains shown)
VH: EVQLLESGGGLVQPGGSLRLSCAASGFTFSDFAMAWVRQAPGKGLEWVSAISGSGDITYYADSVKGRFTISRDNSKNTLYLQMNSLRAEDTAVYYCAREADGLHSPWHFDLWGQGTLVTVSS
VL: DIQMTQSPSSLSASVGDRVTITCRASQSIDTYLNWYQQKPGKAPKLLIYAASALASGVPSRFSGSGSGTDFTLTISSLQPEDFATYYCQQSYSAPPYTFGQGTKVEIK
For B4, the “S Trimer” value in test [5] worked out at 10.2 nM. Further, in [13], the IC50 turned out to be 46.3 nM. Also, the “S1 Monomer” value in [15] was found to be 1.58 nM.

B5: 2-13 (antibody, V domains shown)
VH: EVQLLESGGGLVQPGGSLRLSCAASGFTFSDYPMNWVRQAPGKGLEWVSAISGSGDNTYYADSVKGRFTISRDNSKNTLYLQMNSLRAEDTAVYYCVRHDEYSFDYWGQGTLVTVSS
VL: DIQMTQSPSSLSASVGDRVTITCRASQSIDTYLNWYQQKPGKAPKLLIYGASALESGVPSRFSGSGSGTDFTLTISSLQPEDFATYYCQQSHSAPPYFFGQGTKVEIK
notes: also called variant 2-13
For the molecule B5, the “ELISA(Avg)” value in test [3] is 19.1 fold over background. Moreover, the IC50 in test [4] is 45 nM.

B6: 2-5 (antibody, V domains shown)
VH: EVQLLESGGGLVQPGGSLRLSCAASGFTFSDFAMAWVRQAPGKGLEWVSAISGSGDITYYADSVKGRFTISRDNSKNTLYLQMNSLRAEDTAVYYCAREADGLHSPWHFDLWGQGTLVTVSS
VL: DIQMTQSPSSLSASVGDRVTITCRASQSIHTYLNWYQQKPGKAPKLLIYAASALASGVPSRFSGSGSGTDFTLTISSLQPEDFATYYCQQSYSAPPYTFGQGTKVEIK
As to B6, in [5], the “S Trimer” value worked out at 0.59 nM. Besides, the epitope binning score in test [6] came to 0; in [7], 1; in [8], 0; in test [9], 1; in test [10] it was 0; in [11] it was 0. Moreover, the epitope binning score in [12], in test [14], in test [16] and in test [17] was 1 each time. The IC50 in [13] came to 4.4 nM. Further, the “S1 Monomer” value in [15] turned out to be 0.17 nM.

B7: 2-17 (antibody, V domains shown)
VH: EVQLLESGGGLVQPGGSLRLSCAASGFTFSNYAMSWVRQAPGKGLEWVSAISGSAGSTYYADSVKGRFTISRDNSKNTLYLQMNSLRAEDTAVYYCARVRQGLRRTWYYFDYWGQGTLVTVSS
VL: DIQMTQSPSSLSASVGDRVTITCTGTSSDVGSSNLVSWYQQKPGKAPKLLIYEGSKRPSGVPSRFSGSGSGTDFTLTISSLQPEDFATYYCCSYAGSLYVFGQGTKVEIK
notes: also called variant 2-17
In the case of B7, the “ELISA(Avg)” value in [18] and in test [3] was 3.5 fold over background throughout. In addition, in [19], it took 100 nM to reach a half-maximal effect (EC50).

B8: 4-140 (VHH)
VHH: EVQLVESGGGLVQPGGSLRLSCAASGRTFSNAAMGWFRQAPGKEREFVARITWNGGSTFYADSVKGRFTISADNSKNTAYLQMNSLKPEDTAVYYCATTENPNPRWGQGTLVTVSS
As to B8, in test [1], binding was put at a Kd of 8.9 nM. For the same molecule, the midpoint of inhibition in test [2], the IC50, lay at 3.07 nM.

B9: 4-39 (VHH)
VHH: EVQLVESGGGLVQPGGSLRLSCAASGRTFSNAAMGWFRQAPGKEREFVARILWTGASRNYADSVKGRFTISADNSKNTAYLQMNSLKPEDTAVYYCATTENPNPRWGQGTLVTVSS
As to B9, in test [1], the Kd stood at 17.5 nM. Moreover, half-maximal inhibition in test [2] (IC50) required 1.15 nM.

B10: 4-101 (VHH)
VHH: EVQLVESGGGLVQPGGSLRLSCAASGRTFSNAAMGWFRQAPGKEREFVARILWTGASRSYADSVKGRFTISADNSKNTAYLQMNSLKPEDTAVYYCATTENPNPRWGQGTLVTVSS
For the molecule B10, the Kd in [1] turned out to be 5.8 nM. Also, the IC50 in [2] came to 0.568 nM.

B11: 4-54 (VHH)
VHH: EVQLVESGGGLVQPGGSLRLSCAASGRTFSDARMGWFRQAPGKEREFVGAVSWSGGTTVYADSVKGRFTISADNSKNTAYLQMNSLKPEDTAVYYCATTEDPYPRWGQGTLVTVSS
In the case of B11, the Kd in test [1] stood at 645 nM. The molecule further returned an IC50 in test [2] of 2 nM.

B12: 2-2 (second entry, printed after 2-19) (antibody, V domains shown)
VH: EVQLLESGGGLVQPGGSLRLSCAASGFTFSSYDMSWVRQAPGKGLEWVSVISGSGGSTYYADSVKGRFTISRDNSKNTLYLQMNSLRAEDTAVYYCAKGPLVGWYFDLWGQGTLVTVSS
VL: DIQMTQSPSSLSASVGDRVTITCTGTSSNVGSYNLVSWYQQKPGKAPKLLIYEGTKRPSGVPSRFSGSGSGTDFTLTISSLQPEDFATYYCCSYAGSSSFVVFGQGTKVEIK
Consider B12, for which the “ELISA(Avg)” value in test [18] and in [3] was 12.8 fold over background each time. For the same molecule, the EC50 in [19] was 100 nM.

B13: 2-2 (antibody, V domains shown)
VH: EVQLLESGGGLVQPGGSLRLSCAASGFTFSRHAMNWVRQAPGKGLEWVSGISGSGDETYYADSVKGRFTISRDNSKNTLYLQMNSLRAEDTAVYYCARDLPASYYDSSGYYWHNGMDVWGQGTLVTVSS
VL: DIQMTQSPSSLSASVGDRVTITCRASQTINTYLNWYQQKPGKAPKLLIYSASTLQSGVPSRFSGSGSGTDFTLTISSLQPEDFATYYCQQSYSTFTFGQGTKVEIK
B13: in test [5], the “S Trimer” value worked out at 0.64 nM. Also, the epitope binning score was 0 in test [6]; 0 in test [7]; 0 in [8]; 2 in test [9]; 0 in test [10]; 0 in test [11]. In addition, the epitope binning score in test [12] came out at 0; in test [14], 0; in [16], 1; in test [17] it was 2. Also, in [13], the IC50 was 3 nM. For the same molecule, the “S1 Monomer” value in test [15] is 0.13 nM.
